{"source": "paper PMC10526274", "about": "“Epithelial-Immune Cell Crosstalk Determines the Activation of Immune Cells In Vitro by the Human Cathelicidin LL-37 at Low Physiological Concentrations” (Biomolecules, 2023)", "system": "Caco-2 polarized monolayer", "assay": "Bidirectional transport of FITC-LL-37 through the Caco-2 epithelial monolayer", "assay_type": "in vitro ADME, human", "method": "Caco-2 cell line (ATCC HTB-37) was cultured in a humidified CO2-incubator (5% CO2, 37 °C) in the complete DMEM/F12 (1:1) medium (Gibco, Waltham, MA, USA) containing 10% fetal bovine serum (FBS, Gibco) and 1X antibiotic–antimycotic solution (Gibco). To stabilize the cell phenotype, Caco-2 cells have been subcultivated three times before seeding on the filter supports. Then, Caco-2 cells were seeded at a density of 2 × 10^5 cells/cm^2 onto 24-well Millicell cell culture inserts (PC, 0.4-μm pore size, 0.6 cm^2 surface area, cat. #PIHP01250) (Millipore, Burlington, MA, USA), precoated with 0.2% bovine gelatin (Sigma-Aldrich, Saint Louis, MO, USA). After seeding, Caco-2 cells were grown in the same complete medium with re-feeding every 2–3 days until polarization of the monolayer occurred. The functional polarity of the monolayers was developed when transepithelial electrical resistance (TEER) between the apical and basolateral surfaces of the monolayers reached […] as measured by the electrical resistance system Millicell-ERS Voltohmmeter (Millipore, Burlington, MA, USA). Grown cell monolayers were used in transport and cytokine production experiments between the 21st and 29th days.\nLL-37 was labeled with fluorescein isothiocyanate isomer I (FITC) (Sigma-Aldrich). For coupling with FITC, 0.5 mg of LL-37 in 50 µL of DMSO was first mixed with 200 µL of the carbonate–bicarbonate coupling buffer (0.1 M sodium carbonate, 0.1 M sodium bicarbonate, pH 10.4). Then, 4 mg of FITC in 200 µL of DMSO was added to the solution, and the resultant mixture was incubated in the dark at room temperature (20–22 °C) for 2 h. FITC-LL-37 was purified by using a PD10 gel-filtration column (GE Healthcare, Chicago, IL, USA) pre-equilibrated with PBS.\nThe penetration capability of FITC-LL-37 was investigated using Caco-2 cells as an in vitro model of the intestinal epithelial barrier, grown on permeable Millicell cell culture inserts. Transport of the compound from both sides of the monolayer was determined in the transport buffer (Hank’s balanced salt solution, containing 25 mM HEPES, 1 mM MgCl2, 1 mM CaCl2, and 10 mM D(+)glucose, pH 7.4). […]\nTransfer of LL-37 through Caco-2 monolayers under steady-state conditions was evaluated mathematically for each direction and each insert by the apparent permeability coefficient (Papp), calculated according to the following Equation (1): Papp = ΔC/Δt × (V/(A × Ci))(1) where ΔC/Δt is the solute flux (nM/s) across the barrier, V is the volume of the acceptor chamber, A is the effective filter area of the well (cm^2), and Ci is the initial concentration of the donor solution (nM). […]"}
{"substance": "LL-37: the only human cathelicidin, host defense antimicrobial peptide of 37 a.a. residues, produced by solid-phase peptide synthesis", "values": [{"measurement": "Apparent permeability (Papp) B → A (secretory)", "setting": "Caco-2 (ATCC HTB-37) on Millicell PC inserts, day 21-29, TEER 400, basolateral-to-apical, FITC-labeled LL-37, 5 µM donor, HBSS, 25 mM HEPES, pH 7.4 both sides, 37 °C, 90 min, range over 4 independent inserts", "result": "1.7–2.1 × 10^−6 cm/s"}, {"measurement": "Uptake ratio (UR) = Papp(A → B)/Papp(B → A)", "setting": "Caco-2, FITC-labeled LL-37 5 µM, pH 7.4, 90 min", "result": 0.51}, {"measurement": "Efflux ratio (ER) = Papp(B → A)/Papp(A → B)", "setting": "Caco-2, FITC-labeled LL-37 5 µM, pH 7.4, 90 min, no inhibitor", "result": 1.95}, {"measurement": "Predicted absorption in the human gut", "setting": "predicted from Caco-2 Papp A → B by the classification of ref 20", "result": "0–20%"}]}
